Test results taken from US20030119102A1.
Each block holds one binder with its values, some of them ahead of it.

Target: T1, rat Kv4.2 α-subunit (rat) (UniProt Q63881)
T1 sequence (looked up): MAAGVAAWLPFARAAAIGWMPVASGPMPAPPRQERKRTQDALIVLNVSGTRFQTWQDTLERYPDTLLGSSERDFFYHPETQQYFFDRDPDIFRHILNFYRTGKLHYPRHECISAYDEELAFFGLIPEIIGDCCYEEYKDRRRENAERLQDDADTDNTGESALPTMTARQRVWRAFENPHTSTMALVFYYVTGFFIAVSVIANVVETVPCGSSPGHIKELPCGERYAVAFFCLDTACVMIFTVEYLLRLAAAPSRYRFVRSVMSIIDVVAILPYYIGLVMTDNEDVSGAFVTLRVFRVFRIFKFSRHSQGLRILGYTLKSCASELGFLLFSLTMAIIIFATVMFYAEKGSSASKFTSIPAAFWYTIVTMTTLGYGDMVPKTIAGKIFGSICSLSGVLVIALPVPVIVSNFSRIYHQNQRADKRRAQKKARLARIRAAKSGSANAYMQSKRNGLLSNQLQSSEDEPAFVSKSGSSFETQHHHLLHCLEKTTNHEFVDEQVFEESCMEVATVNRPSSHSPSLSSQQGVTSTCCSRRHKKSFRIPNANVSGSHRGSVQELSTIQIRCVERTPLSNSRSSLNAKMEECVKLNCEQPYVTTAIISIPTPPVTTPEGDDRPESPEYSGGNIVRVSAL
Test: cell-based or functional assay

Inactivation time constant (ms, at 50 mV), CHO cells (rKv4.2 + vector: 28.2): 95.1 ms
Peak Current (nA/cell at 50 mV), CHO cells, patch clamp (rKv4.2 + vector: 0.60): 3.3 nA/cell
Peak Current Density (pA/pF at 50 mV), CHO cells (rKv4.2 + vector: 25.5): 197 pA/pF
Recovery from Inactivation Time constant, CHO cells (rKv4.2 + vector: 272.2): 49.5 ms
B1: KChIP2 (9ql) (protein, UniProt Q9NS61 1-270, looked up, species assumed)
A-type potassium channel modulatory protein KCNIP2: MRGQGRKESLSDSRDLDGSYDQLTGHPPGPTKKALKQRFLKLLPCCGPQALPSVSETLAAPASLRPHRPRLLDPDSVDDEFELSTVCHRPEGLEQLQEQTKFTRKELQVLYRGFKNECPSGIVNEENFKQIYSQFFPQGDSSTYATFLFNAFDTNHDGSVSFEDFVAGLSVILRGTVDDRLNWAFNLYDLNKDGCITKEEMLDIMKSIYDMMGKYTYPALREEAPREHVESFFQKMDRNKDGVVTIEEFIESCQKDENIMRSMQLFDNVI

Inactivation time constant (ms, at 50 mV), CHO cells (rKv4.2 + vector: 28.2): 67.2 ms
Peak Current (nA/cell at 50 mV), CHO cells, patch clamp (rKv4.2 + vector: 0.60): 3.5 nA/cell
Peak Current Density (pA/pF at 50 mV), CHO cells (rKv4.2 + vector: 25.5): 162 pA/pF
Recovery from Inactivation Time constant, CHO cells (rKv4.2 + vector: 272.2): 126 ms
B2: KChIP3 (p19) (protein, UniProt Q9Y2W7 1-256, looked up, species assumed)
Calsenilin: MQPAKEVTKASDGSLLGDLGHTPLSKKEGIKWQRPRLSRQALMRCCLVKWILSSTAPQGSDSSDSELELSTVRHQPEGLDQLQAQTKFTKKELQSLYRGFKNECPTGLVDEDTFKLIYAQFFPQGDATTYAHFLFNAFDADGNGAIHFEDFVVGLSILLRGTVHEKLKWAFNLYDINKDGYITKEEMLAIMKSIYDMMGRHTYPILREDAPAEHVERFFEKMDRNQDGVVTIEEFLEACQKDENIMSSMQLFENVI
